From patent US20230340071A1 (published 2023)
Changes are numbered by the printed parent chain. Names and notes keep the numbering of the source. Each block holds one binder with its values, some of them ahead of it.

Columns and labels:
[1] = target: T1, human IL-2 receptor (IL-2Rβγc) on cells (human, UniProt P14784 27-551; P31785 23-369); assay: cell-based or functional assay
T1 sequence 1: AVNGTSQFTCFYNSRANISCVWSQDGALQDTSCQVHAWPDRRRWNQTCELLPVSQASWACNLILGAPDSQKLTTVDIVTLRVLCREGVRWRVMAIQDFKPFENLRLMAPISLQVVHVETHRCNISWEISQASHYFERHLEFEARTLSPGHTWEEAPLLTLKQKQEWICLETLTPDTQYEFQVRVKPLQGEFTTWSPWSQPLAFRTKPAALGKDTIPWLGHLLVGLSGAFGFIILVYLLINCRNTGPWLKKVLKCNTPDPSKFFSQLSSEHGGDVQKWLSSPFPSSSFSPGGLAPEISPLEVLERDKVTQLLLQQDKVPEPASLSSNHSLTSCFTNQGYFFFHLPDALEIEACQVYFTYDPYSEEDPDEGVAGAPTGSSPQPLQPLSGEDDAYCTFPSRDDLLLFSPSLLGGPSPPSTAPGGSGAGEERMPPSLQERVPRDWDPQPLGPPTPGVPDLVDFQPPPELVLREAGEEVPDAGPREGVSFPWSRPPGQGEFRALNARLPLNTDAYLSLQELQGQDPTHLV
T1 sequence 2: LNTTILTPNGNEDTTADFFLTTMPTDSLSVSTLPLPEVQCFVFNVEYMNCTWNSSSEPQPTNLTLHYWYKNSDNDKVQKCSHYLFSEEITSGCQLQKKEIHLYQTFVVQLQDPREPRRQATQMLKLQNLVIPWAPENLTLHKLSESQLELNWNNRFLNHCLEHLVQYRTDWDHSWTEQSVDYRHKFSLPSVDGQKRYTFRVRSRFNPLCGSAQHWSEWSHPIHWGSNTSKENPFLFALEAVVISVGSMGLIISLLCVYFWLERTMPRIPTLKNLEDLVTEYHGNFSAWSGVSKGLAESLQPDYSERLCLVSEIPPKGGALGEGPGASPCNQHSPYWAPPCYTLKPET

Biotinylated hIL2RB = target: T2, Biotinylated hIL2RB (UniProt P14784 27-240, biotinylated (site not stated)); assay: BLI
T2 chain: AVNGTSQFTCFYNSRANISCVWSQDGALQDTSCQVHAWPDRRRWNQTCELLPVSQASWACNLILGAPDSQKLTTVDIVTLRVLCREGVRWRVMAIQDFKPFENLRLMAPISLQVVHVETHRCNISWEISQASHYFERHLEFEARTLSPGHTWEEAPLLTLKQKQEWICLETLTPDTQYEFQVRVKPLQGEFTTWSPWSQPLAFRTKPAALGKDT

[2] = target: T3, hIL-2RBG (biotinylated hIL2RG on the sensor with hIL2RB in solution) (UniProt P14784 27-240; P31785 23-262, biotinylated (site not stated)); assay: BLI competition, inhibition of hIL-2 binding
T3 chain 1: T2 chain
T3 chain 2: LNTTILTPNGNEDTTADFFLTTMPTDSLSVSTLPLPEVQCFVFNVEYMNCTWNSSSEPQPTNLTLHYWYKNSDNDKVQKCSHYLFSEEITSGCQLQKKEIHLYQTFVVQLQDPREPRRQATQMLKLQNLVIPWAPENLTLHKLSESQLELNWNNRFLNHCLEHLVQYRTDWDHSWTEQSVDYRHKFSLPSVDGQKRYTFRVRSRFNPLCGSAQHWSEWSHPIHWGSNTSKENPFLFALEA

Biotinylated hIL2RG = target: T4, Biotinylated hIL2RG (human, UniProt P31785 23-262, limits assumed, biotinylated (site not stated)); assay: BLI (Octet RED96), biotinylated hIL2RG on streptavidin sensors, 200 nM protein + 200 nM hIL2RB
T4 construct: also called human common gamma receptor (hIL2RG); hIL-2Rγc
T4 sequence: T3 chain 2
Procedure: Biotinylated hIL2RG molecules were immobilized to Streptavidin sensors (SA, ForteBio) at 2 μg/mL in binding buffer (10 mM HEPES, pH 7.4, 150 mM NaCl, 3 mM EDTA, 0.05% surfactant P20, 0.5% non-fat dry milk). After baseline measurement in the binding buffer alone, the binding kinetics were monitored by dipping the biosensors in wells containing 200 nM of protein and 200 nM of hIL2RB for 300 sec. Data were collected in an Octet RED96 (ForteBio) and processed using the instrument's integrated software.

[3] = target: T1, human IL-2 receptor (IL-2Rβγc) on cells; assay: cell-based or functional assay; remark: listed apart in the source
hIL2RB-fc chimera [4] = target: T5, hIL2RB-fc chimera (human, UniProt P14784 27-240); assay: BLI (Octet RED96e), hIL2RB-fc (AcroBiosystems) on anti-human IgG Fc sensors
T5 construct: also called hIL2 receptor beta; hIL-2Rβ; not shown: Fc part of the bought chimera (captured on anti-human IgG Fc biosensors)
T5 sequence: T2 chain
Procedure: (§1) For this purpose, sensors were soaked in samples containing 20 nM of hIL2RB-fc chimera (AcroBiosystems) for 300 sec. […] Finally, sensors were removed from the protein samples and dipped in buffer solutions to promote and measure dissociation (1500 sec). The buffer used to prepare all the samples and soak the sensors was HBS-EP+from GE Healthcare, which contains 10 mM HEPES, 150 mM NaCl, 3 mM EDTA and 0.05% v/v surfactant P20, pH 7.4. Data were acquired at 30° C. using an Octet RED96e system (ForteBio) and processed using the instrument's integrated software. Kinetics were fitted to a 1:1 binding model after subtracting a buffer signal baseline and the Kd values were calculated.

hIL2RG-fc chimera [5] = target: T6, hIL2RG-fc chimera (human, UniProt P31785 23-262); assay: BLI (Octet RED96e), hIL2RG-fc (AcroBiosystems) on anti-human IgG Fc sensors
T6 construct: also called hIL2G; hIL2 receptor gamma; not shown: Fc part of the bought chimera (captured on anti-human IgG Fc biosensors)
T6 sequence: T3 chain 2
Procedure: as §1, with “hIL2RG-fc” for “hIL2RB-fc”, “HBS-EP+ from” for “HBS-EP+from”

hIL2RG-fc chimera [6] = target: T6, hIL2RG-fc chimera; assay: BLI (Octet RED96e), hIL2RG-fc (Symansis) on anti-human IgG Fc sensors, protein + 200 nM hIL2RB-fc
Procedure: (§2) All samples were prepared using HBS-EP+ buffer from GE Healthcare, which contains 10 mM HEPES, 150 mM NaCl, 3 mM EDTA and 0.05% v/v surfactant P20, pH 7.4. Data were acquired at 30° C. using an Octet RED96e system (ForteBio) and processed using the instrument's integrated software.

[7] = target: T1, human IL-2 receptor (IL-2Rβγc) on cells; assay: cell-based or functional assay; remark: listed apart in the source
hIL2RB-fc chimera [8] = target: T5, hIL2RB-fc chimera; assay: BLI (Octet RED96e), hIL2RB-fc (Symansis) on anti-human IgG Fc sensors
Procedure: as §1, with “(Symansis)” for “(AcroBiosystems)”

hIL2RG-fc chimera [9] = target: T6, hIL2RG-fc chimera; assay: BLI (Octet RED96e), hIL2RG-fc on anti-human IgG Fc sensors, 200 nM P3 + 200 nM hIL2RB-fc
Procedure: as §2

mouse IL-2 beta receptor = target: T7, mouse IL-2 beta receptor (mouse, UniProt P16297 27-240); assay: BLI competition: mIL2RG on sensor, dilutions of P3 + 20 nM Neo-2/15; competitor Neo-2/15; read-out binding to mIL2RBG
T7 construct: also called mIL2RB; beta part of mIL2RBG
T7 sequence (looked up): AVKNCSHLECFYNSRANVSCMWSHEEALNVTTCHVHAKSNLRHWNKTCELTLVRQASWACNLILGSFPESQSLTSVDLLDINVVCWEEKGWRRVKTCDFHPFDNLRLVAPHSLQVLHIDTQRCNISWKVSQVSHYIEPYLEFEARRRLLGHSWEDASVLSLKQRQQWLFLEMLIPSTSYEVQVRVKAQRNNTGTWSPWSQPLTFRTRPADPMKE
Procedure: as §2, with “HBS-EP+buffer” for “HBS-EP+ buffer”, “software. IC50 values were estimated from response vs antagonist concentration plots.” for “software.”

hIL2RB-fc chimera [10] = target: T5, hIL2RB-fc chimera; assay: BLI competition: hIL2RG-fc on sensor, dilutions of P3 + 20 nM Neo-2/15 + 50 nM hIL2RB-fc; competitor Neo-2/15; read-out binding to hIL2RBG
Procedure: as §2, with “HBS-EP+buffer” for “HBS-EP+ buffer”, “software. IC50 values were estimated from response vs antagonist concentration plots.” for “software.”

hIL2RG-fc chimera [11] = target: T6, hIL2RG-fc chimera; assay: BLI (Octet RED96e), hIL2RG-fc on anti-human IgG Fc sensors
Procedure: as §1, with “hIL2RG-fc” for “hIL2RB-fc”, “HBS-EP+ from” for “HBS-EP+from”

Kd (hIL2RG-fc chimera [5]): 277 nM
Kd (hIL2RG-fc chimera [6]): 277 nM
B3: Neo-2/15 (designed binder)
chain: PKKKIQLHAEHALYDALMILNIVKTNSPPAEEKLEDYAFNFELILEEIARLFESGDQKDEAEKAKRMKEWMKRIKTTASEDEQEEMANAIITILQSWIFS
notes: Proteins were expressed in E. coli with an N-terminal 6xHis tag and thrombin site; also called Neoleukin-2/15

Binding Inhibition IC50 (inhibition of hIL-2 pSTAT5 signaling, human pan T cells, 0.1 nM hIL2) [7]: 1.4 nM
Binding Inhibition IC50 (inhibition of hIL-2 pSTAT5 signaling, human pan T cells, 1 nM hIL2) [7]: 11.7 nM
Binding Inhibition IC50 (inhibition of hIL-2 pSTAT5 signaling, human pan T cells, 10 nM hIL2) [7]: 863 nM
Kd (hIL2RB-fc chimera [8]): 0.2 nM
binding result (hIL2RG-fc chimera [9]): no binding (tested: 200 nM)
IC50 (mouse IL-2 beta receptor): > 200 nM
IC50 (hIL2RB-fc chimera [10]): 12.5 nM
B4: Protein 3 (P3) (designed binder)
chain: B3 chain with H8Y, L13R, L17E, K33E, Q95T, F99R
notes: P1 with H8Y and K33E; N-terminal 6xHis tag and thrombin site in the expression vector

The remaining lines, values behind:

B1: Protein 6 (P6) (designed binder)
chain: B3 chain with H8F, L17E, N21K, K33E, A89K, I91R, T92K, Q95E, S96E, F99R
notes: P5 with 'Y8F' (printed; P5 has H at 8) and K33E; N-terminal 6xHis tag and thrombin site in the expression vector
Signaling Inhibition IC50 (1 nM hIL-2, pSTAT5, CD4+ T cells) [1]: 1.84 nM
Signaling Inhibition IC50 (1 nM hIL-2, pSTAT5, CD8+ T cells) [1]: 0.41 nM
Signaling Inhibition IC50 (1 nM hIL-2, pSTAT5, all T cells) [1]: 0.83 nM
Kd (Biotinylated hIL2RB): < 1 nM
IC50 [2]: 83 nM
binding result (Biotinylated hIL2RG): no binding (tested: 200 nM)

B2: Protein 1 (P1) (designed binder)
chain: B3 chain with L13R, L17E, Q95T, F99R
notes: N-terminal 6xHis tag and thrombin site in the expression vector
Induced Signaling EC50 (pSTAT5, YT-1 CTLL-2 cells) [3]: 557 nM
Kd (hIL2RB-fc chimera [4]): 17 nM
Kd (hIL2RG-fc chimera [5]): 1190 nM

B5: Protein 5 (P5) (designed binder)
chain: B3 chain with L17E, N21K, A89K, I91R, T92K, Q95E, S96E, F99R
notes: as for B2
Signaling Inhibition IC50 (1 nM hIL-2, pSTAT5, CD8+ T cells) [1]: 77.7 nM
Kd (Biotinylated hIL2RB): 12 nM
IC50 [2]: 100 nM
binding result (Biotinylated hIL2RG): no binding (tested: 200 nM)

B6: Protein 2 (P2) (designed binder)
chain: B3 chain with L17E, N21K, A89R, I91R, T92K, Q95E, S96E, F99R
notes: as for B2
Induced Signaling EC50 (pSTAT5, YT-1 CTLL-2 cells) [3]: 426 nM
binding result (hIL2RG-fc chimera [11]): no binding (tested: 5000 nM (highest concentration tested))
Kd (hIL2RB-fc chimera [4]): 21 nM
